Assay results from the RNAGym collection of RNA variant scans (doi:10.7554/elife.90254).

B1: LINE1-mini (parent)
chain: GGCAGAGCUCAACACAGCGUGGCAAAGUGGCUGUGGCUAGACUGCC

Variants of: B1
Assay: self-cleavage, relative activity (ratio to wild type); higher = more cleavage; in vitro, sequencing; the parent is a self-cleaving ribozyme
Variant G1A G30C has a self-cleavage of 1.51.
A6C C15U gave a self-cleavage of 0.66.
With C13U the self-cleavage was 0.17.
C3A U28G gave a self-cleavage of 0.42.
Work on U20C G27C yielded a self-cleavage of 0.28.
In the case of G5C C42G, the self-cleavage is reported as 0.46.
Work on C10U G21C yielded a self-cleavage of 0.19.
C18G U38A gave a self-cleavage of 0.38.
With U28A C45U the self-cleavage was 1.28.
In the case of U28A C45G, the self-cleavage is reported as 0.24.
G29A G33C showed a self-cleavage of 0.06.
Work on G21C A26U yielded a self-cleavage of 1.57.
With C8G G29A the self-cleavage was 0.06.
G1U A6U showed a self-cleavage of 0.22.
Work on A25U G29C yielded a self-cleavage of 0.38.
A16C G44C gave a self-cleavage of 0.02.
Variant A14U C42G has a self-cleavage of 0.1.
A6U U32C gave a self-cleavage of 0.1.
A14C G29U showed a self-cleavage of 0.13.
A14G A26G gave a self-cleavage of 0.43.
In the case of G29A A41G, the self-cleavage is reported as 0.32.
A4U U20C gave a self-cleavage of 0.13.
Work on A25G C46A yielded a self-cleavage of 0.55.
C10U G17A gave a self-cleavage of 0.34.
Work on A26G G30U yielded a self-cleavage of 1.61.
In the case of A25G G44C, the self-cleavage is reported as 0.19.
With U20C U43G the self-cleavage was 0.01.
With U20C U43C the self-cleavage was 0.09.
C8G C42G gave a self-cleavage of 0.06.
Work on G5C U20C yielded a self-cleavage of 0.18.
In the case of A12G A14C, the self-cleavage is reported as 0.04.
With G29C U38A the self-cleavage was 0.08.
Work on G27A U34C yielded a self-cleavage of 0.13.
Work on G35C C42A yielded a self-cleavage of 0.1.
G2C U20C showed a self-cleavage of 0.08.
A4C G19A showed a self-cleavage of 0.28.
U9C C42G showed a self-cleavage of 0.03.
For G1A A39G, the self-cleavage was 0.12.
G27U C37G showed a self-cleavage of 0.03.
U9G G35A showed a self-cleavage of 0.11.
Variant G2A A24C has a self-cleavage of 1.16.
G30C U32A gave a self-cleavage of 0.26.
Work on G19C A25U yielded a self-cleavage of 0.26.
For C31G U32C, the self-cleavage was 0.08.
Work on C15U G22C yielded a self-cleavage of 0.53.
With G1A C23A the self-cleavage was 0.95.
For G30U C42U, the self-cleavage was 0.32.
C3U G30U showed a self-cleavage of 0.5.
Variant G44A C45A has a self-cleavage of 0.07.
For C23G A39G, the self-cleavage was 0.09.
With A24G G36A the self-cleavage was 0.17.
For C15U G17C, the self-cleavage was 0.19.
With C15U C37G the self-cleavage was 0.08.
With C3A C31U the self-cleavage was 0.11.
Variant C13G U20A has a self-cleavage of 0.13.
Work on C10A G29A yielded a self-cleavage of 0.06.
Variant C23G G33C has a self-cleavage of 0.03.
C13U C23U showed a self-cleavage of 0.22.
G2C G30C showed a self-cleavage of 0.23.
C8G A12G gave a self-cleavage of 0.03.
A12C A24C gave a self-cleavage of 0.01.
G5A A12C showed a self-cleavage of 0.04.
For G30A U32C, the self-cleavage was 0.21.
With G1C G44C the self-cleavage was 0.03.
A6C C18U showed a self-cleavage of 1.1.
For A14G G30C, the self-cleavage was 0.24.
With U9A A26G the self-cleavage was 0.09.
Work on C3G G21U yielded a self-cleavage of 0.48.
For G22C C31G, the self-cleavage was 0.08.
Work on A26G A41G yielded a self-cleavage of 0.2.
Work on G7U G36A yielded a self-cleavage of 0.11.
In the case of A12C A25C, the self-cleavage is reported as 0.03.
Work on A11C G29A yielded a self-cleavage of 0.06.
Work on U9G U28C yielded a self-cleavage of 0.04.
With A11C A16U the self-cleavage was 0.02.
Variant C13A G29A has a self-cleavage of 0.19.
With C10A G27C the self-cleavage was 0.04.
For U43C C46U, the self-cleavage was 0.1.
G1A U34A gave a self-cleavage of 0.08.
G17U A24C gave a self-cleavage of 0.11.
With U9C G22U the self-cleavage was 0.02.
In the case of U38G G40C, the self-cleavage is reported as 0.03.
Variant G7U has a self-cleavage of 0.1.
In the case of G17C C37A, the self-cleavage is reported as 0.07.
